Consider 1 molecule from article PMC11735773.

This data set has as its target SARS-CoV-2 nucleoprotein (NP) (SARS-CoV-2, UniProt P0DTC9 1-419).

GGGGGGGGGGGG (structured_RNA, phosphorothioate linkages) [TAMRA-G12(S)]: the binding result is given as “binds”.
